Laboratory results as given in PMC3066130, “Molecular Architecture of the Human Mediator–RNA Polymerase II–TFIIF Assembly” (PLoS Biology, 2011).

Target: T1, human RNA polymerase II (12-subunit enzyme) (human, UniProt P24928 1-1970; P30876 1-1174; P19387 1-275; O15514 1-142; P19388 1-210; P61218 …)
T1 construct: RPB1, largest subunit of human pol II; RPB2, subunit of human pol II; RPB3, subunit of human pol II; RPB4, subunit of human pol II; RPB5, subunit of human pol II; RPB6, subunit of human pol II; RPB7, subunit of human pol II; RPB8, subunit of human pol II; RPB9, subunit of human pol II; RPB10, subunit of human pol II; RPB11, subunit of human pol II; RPB12, subunit of human pol II; The CTD of RPB1 …
Experiment: co-sedimentation
Conditions: both partners purified

binding result: binds
B1: human TFIIF (Rap74 and Rap30) (complex)
chain 1: MAALGPSSQNVTEYVVRVPKNTTKKYNIMAFNAADKVNFATWNQARLERDLSNKKIYQEEEMPESGAGSEFNRKLREEARRKKYGIVLKEFRPEDQPWLLRVNGKSGRKFKGIKKGGVTENTSYYIFTQCPDGAFEAFPVHNWYNFTPLARHRTLTAEEAEEEWERRNKVLNHFSIMQQRRLKDQDQDEDEEEKEKRGRRKASELRIHDLEDDLEMSSDASDASGEEGGRVPKAKKKAPLAKGGRKKKKKKGSDDEAFEDSDDGDFEGQEVDYMSDGSSSSQEEPESKAKAPQQEEGPKGVDEQSDSSEESEEEKPPEEDKEEEEEKKAPTPQEKKRRKDSSEESDSSEESDIDSEASSALFMAKKKTPPKRERKPSGGSSRGNSRPGTPSAEGGSTSSTLRAAASKLEQGKRVSEMPAAKRLRLDTGPQSLSGKSTPQPPSGKTTPNSGDVQVTEDAVRRYLTRKPMTTKDLLKKFQTKKTGLSSEQTVNVLAQILKRLNPERKMINDKMHFSLKE
chain 2: MAERGELDLTGAKQNTGVWLVKVPKYLSQQWAKASGRGEVGKLRIAKTQGRTEVSFTLNEDLANIHDIGGKPASVSAPREHPFVLQSVGGQTLTVFTESSSDKLSLEGIVVQRAECRPAASENYMRLKRLQIEESSKPVRLSQQLDKVVTTNYKPVANHQYNIEYERKKKEDGKRARADKQHVLDMLFSAFEKHQYYNLKDLVDITKQPVVYLKEILKEIGVQNVKGIHKNTWELKPEYRHYQGEEKSD
notes: Rap74, large subunit of human TFIIF; Rap30, small subunit of human TFIIF; also called dimeric TFIIF complex
